Reference: IntAct's records for PubMed 17572682

B1: Protein CBFA2T1 (Homo sapiens), Q06455 (parent)
chain: MISVKRNTWRALSLVIGDCRKKGNFEYCQDRTEKHSTMPDSPVDVKTQSRLTPPTMPPPPTTQGAPRTSSFTPTTLTNGTSHSPTALNGAPSPPNGFSNGPSSSSSSSLANQQLPPACGARQLSKLKRFLTTLQQFGNDISPEIGERVRTLVLGLVNSTLTIEEFHSKLQEATNFPLRPFVIPFLKANLPLLQRELLHCARLAKQNPAQYLAQHEQLLLDASTTSPVDSSELLLDVNENGKRRTPDRTKENGFDREPLHSEHPSKRPCTISPGQRYSPNNGLSYQPNGLPHPTPPPPQHYRLDDMAIAHHYRDSYRHPSHRDLRDRNRPMGLHGTRQEEMIDHRLTDREWAEEWKHLDHLLNCIMDMVEKTRRSLTVLRRCQEADREELNYWIRRYSDAEDLKKGGGSSSSHSRQQSPVNPDPVALDAHREFLHRPASGYVPEEIWKKAEEAVNEVKRQAMTELQKAVSEAERKAHDMITTERAKMERTVAEAKRQAAEDALAVINQQEDSSESCWNCGRKASETCSGCNTARYCGSFCQHKDWEKHHHICGQTLQAQQQGDTPAVSSSVTPNSGAGSPMDTPPAATPRSTTPGTPSTIETTPR

Variants of: B1
Conditions: with ncor1_human NCOR1, O75376
Chain of ncor1_human NCOR1, O75376 (O75376 whole entry): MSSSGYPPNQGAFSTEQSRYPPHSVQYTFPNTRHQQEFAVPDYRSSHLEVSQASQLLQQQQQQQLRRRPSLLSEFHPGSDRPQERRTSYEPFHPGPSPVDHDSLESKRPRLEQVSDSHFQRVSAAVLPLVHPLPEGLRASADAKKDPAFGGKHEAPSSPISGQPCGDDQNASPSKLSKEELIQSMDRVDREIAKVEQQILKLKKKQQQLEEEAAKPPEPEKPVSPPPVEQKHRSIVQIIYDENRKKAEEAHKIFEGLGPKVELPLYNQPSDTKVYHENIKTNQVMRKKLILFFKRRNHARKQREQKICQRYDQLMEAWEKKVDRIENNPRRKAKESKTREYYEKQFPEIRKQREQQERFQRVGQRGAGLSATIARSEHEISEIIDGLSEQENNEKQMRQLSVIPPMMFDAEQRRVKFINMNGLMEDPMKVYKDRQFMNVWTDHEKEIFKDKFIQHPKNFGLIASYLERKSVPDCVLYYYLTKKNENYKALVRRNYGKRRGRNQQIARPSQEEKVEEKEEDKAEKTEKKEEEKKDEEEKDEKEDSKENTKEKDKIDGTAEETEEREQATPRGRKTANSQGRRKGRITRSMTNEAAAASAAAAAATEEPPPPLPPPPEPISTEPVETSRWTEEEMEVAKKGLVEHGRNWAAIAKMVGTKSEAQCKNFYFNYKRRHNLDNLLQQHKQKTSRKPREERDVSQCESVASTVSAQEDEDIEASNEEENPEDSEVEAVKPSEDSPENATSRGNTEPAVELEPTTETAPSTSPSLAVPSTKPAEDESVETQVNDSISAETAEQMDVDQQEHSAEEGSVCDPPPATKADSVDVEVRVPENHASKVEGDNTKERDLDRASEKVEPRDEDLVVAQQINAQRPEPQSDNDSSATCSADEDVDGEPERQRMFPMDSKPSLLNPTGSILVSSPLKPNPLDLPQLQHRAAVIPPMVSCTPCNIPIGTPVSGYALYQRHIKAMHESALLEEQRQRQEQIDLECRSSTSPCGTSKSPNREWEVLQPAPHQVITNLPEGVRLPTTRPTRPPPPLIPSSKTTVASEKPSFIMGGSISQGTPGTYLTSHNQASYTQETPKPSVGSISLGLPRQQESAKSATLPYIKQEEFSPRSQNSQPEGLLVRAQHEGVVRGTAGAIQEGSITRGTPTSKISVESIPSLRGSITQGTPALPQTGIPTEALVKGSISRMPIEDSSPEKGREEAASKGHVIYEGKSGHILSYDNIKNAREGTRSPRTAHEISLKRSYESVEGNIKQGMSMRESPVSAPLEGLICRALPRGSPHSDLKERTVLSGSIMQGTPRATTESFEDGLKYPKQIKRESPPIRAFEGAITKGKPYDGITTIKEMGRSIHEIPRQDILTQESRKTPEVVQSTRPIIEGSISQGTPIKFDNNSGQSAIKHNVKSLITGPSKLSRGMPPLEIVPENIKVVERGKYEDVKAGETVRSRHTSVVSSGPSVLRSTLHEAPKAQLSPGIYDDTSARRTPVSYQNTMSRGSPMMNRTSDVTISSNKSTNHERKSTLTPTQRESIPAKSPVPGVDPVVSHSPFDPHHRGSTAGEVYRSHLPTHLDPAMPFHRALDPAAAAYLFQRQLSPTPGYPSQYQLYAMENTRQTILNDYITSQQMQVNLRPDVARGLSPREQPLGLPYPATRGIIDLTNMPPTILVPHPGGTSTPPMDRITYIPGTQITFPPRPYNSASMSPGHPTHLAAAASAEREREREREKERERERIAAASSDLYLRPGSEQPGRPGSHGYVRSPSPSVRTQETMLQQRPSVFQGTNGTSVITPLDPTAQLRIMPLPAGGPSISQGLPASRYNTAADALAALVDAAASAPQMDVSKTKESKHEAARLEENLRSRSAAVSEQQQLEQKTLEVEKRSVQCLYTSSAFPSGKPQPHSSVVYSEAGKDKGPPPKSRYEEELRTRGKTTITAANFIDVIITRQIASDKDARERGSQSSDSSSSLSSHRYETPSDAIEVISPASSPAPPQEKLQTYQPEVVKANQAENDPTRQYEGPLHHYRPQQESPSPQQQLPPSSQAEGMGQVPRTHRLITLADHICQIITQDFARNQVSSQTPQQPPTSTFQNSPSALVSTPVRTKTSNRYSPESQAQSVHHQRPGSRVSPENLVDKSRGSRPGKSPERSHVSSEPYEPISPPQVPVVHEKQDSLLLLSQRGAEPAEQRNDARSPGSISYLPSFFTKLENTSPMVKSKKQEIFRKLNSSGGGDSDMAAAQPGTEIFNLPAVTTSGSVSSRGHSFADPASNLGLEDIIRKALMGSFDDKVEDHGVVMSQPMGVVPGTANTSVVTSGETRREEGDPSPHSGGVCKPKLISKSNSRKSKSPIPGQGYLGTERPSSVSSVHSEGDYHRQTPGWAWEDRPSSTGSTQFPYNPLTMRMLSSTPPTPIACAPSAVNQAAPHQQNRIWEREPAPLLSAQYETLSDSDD

Effect of a mutation on the interaction, decreasing interaction:
L177A
T173Q
F136A
F175A
F129K
Q170A
